Reference: patent EP0568622B1
pKd: −log10 of the molar value.

Target: rat/human corticotropin releasing factor (r/h CRF), 41-residue peptide (rat/human (same molecule))
Assay: method not stated

Substance: recombinant rat CRF-binding protein (rCRF-BP), secreted by transfected COS7 cells
- pKd: 10.00
